First the molecules themselves.
B1: FUSE-524 (h5A1-HK1_Fc) (Fc fusion)
chain: EVQLLESGGGLVQPGGSLRLSCAASGYTNRLKCMGWFRQAPGKERELASISTGTGNTYYADSVKGRFTISRDNSKNTLYLQMNSLKAEDTAVYYCAADVRPDGTTCHYNSRGQGTLVTVSS
notes: VHH-Fc format; also called humanized clone 5A1-HK1; 5A1-H1; not shown: Fc of the VHH-Fc format
B2: FUSE-589 (h2A11-HK5 Fc) (Fc fusion)
chain: EVQLLESGGGLVQPGGSLRLSCAASGSTYSANCMGWFRQAPGKERELASMSIRSGRTYYADSVKGRFTISQDGSKNTLYLQMNSLKAEDTAVYYCAAAYGGSRCVYNYRGQGTLVTVSS
notes: VHH-Fc format; not shown: Fc of the VHH-Fc format
B3: FUSE-596 (h5A1-FA9-HK8 Fc) (Fc fusion)
chain: EVQLLESGGGLVPRGGSLRLSCTASGYTNRLKCMGWFRQAPGKEREEIASISTGTGNTYYSDSVKGRFTISRDKSRNTLYLKLKSLRAEDTAVYYCAADVRPDGTTCHYNSRGQGTQVTVSS
notes: as for B2
B4: FUSE-489 (h5A1-Ac13) (bispecific antibody, human IgG1, lambda, L234A L235A)
heavy: EVQLVESGGGLVQPGGSLRLSCAASGFTFSTYAMNWVRQAPGKGLEWVARIRSKYNNYATYYADSVKDRFTISRDDSKNTLYLQMNSLRAEDTAVYYCARHGNFGNSYVSWFAYWGQGTMVTVSSASTKGPSVFPLAPSSKSTSGGTAALGCLVKDYFPEPVTVSWNSGALTSGVHTFPAVLQSSGLYSLSSVVTVPSSSLGTQTYICNVNHKPSNTKVDKKVEPKSCDKTHTCPPCPAPEAAGGPSVFLFPPKPKDTLMISRTPEVTCVVVDVSHEDPEVKFNWYVDGVEVHNAKTKPREEQYNSTYRVVSVLTVLHQDWLNGKEYKCKVSNKALPAPIEKTISKAKGQPREPQVYTLPPSREEMTKNQVSLSCAVKGFYPSDIAVEWESNGQPENNYKTTPPVLDSDGSFFLVSKLTVDKSRWQQGNVFSCSVMHEALHNRFTQKSLSLSPGK
chain: QVQLQESGGGLVQPGGSLRLSCTASGYTNRLKCMGWVRQAPGKEREEVATISTGTGNTYYADSVKGRFTISRDNSKNTLYLQMNSLRAEDTAMYYCAADVRPDGTTCHYNSGGQGTQVTVSSEPKSSDKTHTCPPCPAPEAAGGPSVFLFPPKPKDTLMISRTPEVTCVVVDVSHEDPEVKFNWYVDGVEVHNAKTKPREEQYNSTYRVVSVLTVLHQDWLNGKEYKCKVSNKALPAPIEKTISKAKGQPREPQVYTLPPSREEMTKNQVSLWCLVKGFYPSDIAVEWESNGQPENNYKTTPPVLDSDGSFFLYSKLTVDKSRWQQGNVFSCSVMHEALHNHYTQKSLSLSPGK
light: QAVVTQEPSLTVSPGGTVTLTCRSSTGAVTTSNYANWVQQKPGQAPRGLIGGTNKRAPGTPARFSGSLLGGKAALTLSGVQPEDEAEYYCALWYSNLWVFGGGTKLTVLGQPKAAPSVTLFPPSSEELQANKATLVCLISDFYPGAVTVAWKADSSPVKAGVETTTPSKQSNNKYAASSYLSLTPEQWKSHRSYSCQVTHEGSTVEKTVAPTECSGGGGSGGGGSGGGGSGGGGSQVQLQESGGGLVQPGGSLRLSCTASGYTNRLKCMGWVRQAPGKEREEVATISTGTGNTYYADSVKGRFTISRDNSKNTLYLQMNSLRAEDTAMYYCAADVRPDGTTCHYNSGGQGTQVTVSS
notes: Format Ac13
B5: FUSE-497 (h5A1-Ac13) (bispecific antibody, human IgG1, lambda, L234A L235A)
heavy: B4 heavy
chain: EVQLLESGGGLVPRGGSLRLSCTASGYTNRLKCMGWFRQAPGKEREEIATISTGTGNTYYADSVKGRFTISRDNSRNTLYLQMKTLRAEDTAVYYCAADVRPDGTTCHYNSWGQGTQVTVSSEPKSSDKTHTCPPCPAPEAAGGPSVFLFPPKPKDTLMISRTPEVTCVVVDVSHEDPEVKFNWYVDGVEVHNAKTKPREEQYNSTYRVVSVLTVLHQDWLNGKEYKCKVSNKALPAPIEKTISKAKGQPREPQVYTLPPSREEMTKNQVSLWCLVKGFYPSDIAVEWESNGQPENNYKTTPPVLDSDGSFFLYSKLTVDKSRWQQGNVFSCSVMHEALHNHYTQKSLSLSPGK
light: QAVVTQEPSLTVSPGGTVTLTCRSSTGAVTTSNYANWVQQKPGQAPRGLIGGTNKRAPGTPARFSGSLLGGKAALTLSGVQPEDEAEYYCALWYSNLWVFGGGTKLTVLGQPKAAPSVTLFPPSSEELQANKATLVCLISDFYPGAVTVAWKADSSPVKAGVETTTPSKQSNNKYAASSYLSLTPEQWKSHRSYSCQVTHEGSTVEKTVAPTECSGGGGSGGGGSGGGGSGGGGSEVQLLESGGGLVPRGGSLRLSCTASGYTNRLKCMGWFRQAPGKEREEIATISTGTGNTYYADSVKGRFTISRDNSRNTLYLQMKTLRAEDTAVYYCAADVRPDGTTCHYNSWGQGTQVTVSS
notes: Format Ac13
B6: FUSE-498 (h5A1-Ac13) (bispecific antibody, human IgG1, lambda, L234A L235A)
heavy: B4 heavy
chain: B4 chain with Q1E, Q5V, V37F, V48I, I70F, M93V
light: B4 light with Q236E, Q240V, V272F, V283I, I305F, M328V
notes: Format Ac13
B7: FUSE-570 (h5A1-FA18 Fc) (Fc fusion)
chain: QVQLVESGGGLVQPGGSLRLSCSASGYTNRLKCMGWFRQAPGKEREEIATISSGTGNTYYADSVKGRFTFSRDNSKNTLYLQMNSLRAEDTGMYYCAADVRPDGTTCHYNSGGQGTQVTVSS
notes: as for B2
B8: FUSE-563 (h5A1-FA11 Fc) (Fc fusion)
chain: EVQLLESGGGLVQPGGSLKLSCTASGYTNRLKCMGWFRQAPGKEREEIATISTGTGNTYYADSVKGRFTISQDRSKNTLYLQMNSLRAEDTAVYYCAADVRPDGTTCHYNSWGQGTLVTVSS
notes: as for B2
B9: FUSE-569 (h5A1-FA17 Fc) (Fc fusion)
chain: B1 chain with E1Q, L5V, A23S, K86R, E88D, R111W, L116Q
notes: as for B2
B10: FUSE-662 - h2A11-HK2-16-N84S Fc (Fc fusion)
chain: B2 chain with S27V, T28G, E44D, Q71R, G73S, N83S
notes: as for B2
B11: FUSE-661 - h2A11-HK2-3-N84S Fc (Fc fusion)
chain: B2 chain with T28Q, Y29R, E44D, Q71R, G73S, N83S
notes: as for B2
B12: FUSE-655 - h5A1-FA9-HK6-N84S Fc (Fc fusion)
chain: B3 chain with S61A, R72Q, K82Q, L83M, K84S, R87K, D103R
notes: as for B2
B13: FUSE-654 - h5A1-FA9-HK6-R19K Fc (Fc fusion)
chain: B3 chain with R19K, S61A, R72Q, K82Q, L83M, K84N, R87K, D103R
notes: as for B2
B14: FUSE-560 (h2A11-HK2 Fc) (Fc fusion)
chain: B2 chain with Q71R, G73S
notes: as for B2
B15: FUSE-562 (h2A11-HK4 Fc) (Fc fusion)
chain: B2 chain with A60S, Q71R
notes: as for B2
B16: FUSE-561 (h2A11-HK3 Fc) (Fc fusion)
chain: B2 chain with Q71R, G73S, K86R
notes: as for B2
B17: BI-HU9-HK-1 h5A1 Fc (Fc fusion)
chain: B8 chain with K19R, T23A, I48V, T50S, R74K, R87K, W112R
notes: as for B2
B18: BI-HU9-VH9-1 h5A1 Fc (Fc fusion)
chain: B3 chain with S50T, S61A, R72Q, K82Q, L83M, S85T, R112W
notes: as for B2
B19: BI-HU9-VHH31 h5A1 Fc (Fc fusion)
chain: EVQLVESGGGLVQPGGSLRLSCAASGFTVRLKCMGWFRQAPGKGLEEVATISTGTGNTYYADSVKGRFTISRDNSKNTLYLQMNSLRAEDTAVYYCAADVRPDGTTCHYNSWGQGTTVTVSS
notes: as for B2
B20: BI-HU9-VH9 h5A1 Fc (Fc fusion)
chain: B3 chain with S50T, S61A, K74N, K82Q, L83M, S85T, R112W
notes: VHH-Fc format; same VHH as FUSE-497; not shown: Fc of the VHH-Fc format

Consider 20 molecules from patent US20250313627A1 (FUSE BIOTHERAPEUTICS, published 2025).

Residue numbers refer to the chain shown, from its start. Names and notes keep the numbering of the source.

T1 sequence (Q01973 30-937): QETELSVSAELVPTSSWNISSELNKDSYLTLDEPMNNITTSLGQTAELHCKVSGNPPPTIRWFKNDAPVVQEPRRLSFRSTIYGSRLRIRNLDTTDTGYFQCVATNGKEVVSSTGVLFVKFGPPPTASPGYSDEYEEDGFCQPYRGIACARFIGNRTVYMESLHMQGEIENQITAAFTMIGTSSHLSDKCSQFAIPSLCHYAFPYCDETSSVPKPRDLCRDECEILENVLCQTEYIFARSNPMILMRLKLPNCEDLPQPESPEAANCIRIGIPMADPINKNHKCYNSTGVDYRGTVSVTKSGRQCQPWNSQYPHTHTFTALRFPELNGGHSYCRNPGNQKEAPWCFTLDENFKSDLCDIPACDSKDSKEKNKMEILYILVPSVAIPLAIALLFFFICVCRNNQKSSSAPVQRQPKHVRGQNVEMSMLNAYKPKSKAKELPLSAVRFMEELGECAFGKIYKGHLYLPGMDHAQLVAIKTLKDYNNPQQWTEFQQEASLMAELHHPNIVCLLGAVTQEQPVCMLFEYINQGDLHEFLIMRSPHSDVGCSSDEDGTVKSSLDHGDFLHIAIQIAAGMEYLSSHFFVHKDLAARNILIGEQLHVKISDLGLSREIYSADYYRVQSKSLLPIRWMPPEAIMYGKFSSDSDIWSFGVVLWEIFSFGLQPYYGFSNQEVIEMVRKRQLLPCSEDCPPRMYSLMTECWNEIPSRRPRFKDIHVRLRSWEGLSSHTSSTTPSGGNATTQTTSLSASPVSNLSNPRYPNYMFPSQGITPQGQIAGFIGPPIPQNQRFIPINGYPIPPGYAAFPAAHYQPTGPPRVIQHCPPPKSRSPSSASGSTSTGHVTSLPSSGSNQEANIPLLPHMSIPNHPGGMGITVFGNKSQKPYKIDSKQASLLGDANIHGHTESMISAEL

The first assay has as its target T1, human ROR1 (Receptor Tyrosine Kinase-Like Orphan Receptor 1) on the cell surface (human, UniProt Q01973 30-937).
T1 construct: whole, on cells; engineered into B16-F10 (high density) and LS174T (low density) cells; also called B16-F10-ROR1-H; LS174T-ROR1-L
Nature of the assay: flow cytometry on B16-F10 cells engineered to express human ROR1, secondary antibody to the IgG1 Fc. How it is done: As shown in FIG. 15 the apparent binding affinity (EC50-binding) of the ROR1 specific VHH-Fc incorporating either the non humanized VHH clone 5A1 (FUSE179; black circle), the humanized clone 5A1-FA9-HK1 (FUSE559; black square) or the humanized clone 5A1-HK1 (FUSE524; black triangle) was calculated. Shown is a non-linear x-y plot of binding to B16-F10 cell engineered to express human ROR1 relative to the concentration of test article used for staining. A Hen Egg Lysozyme (HEL)-specific antibody was used as the negative isotype control. Binding was measured via flow cytometry using a fluorescently labeled secondary antibody specific for the Fc domain of IgG1. A summary table of EC50s and maximum MFI is shown beneath under the graph.
In general terms: A flow cytometer gives signals particle by particle.
Turning to B1, a half-maximal effect (EC50) was put at 2.74 nM and the “Max MFI” value was found to be 7080 MFI.

The next assay has as its target T1, human ROR1 (Receptor Tyrosine …). Nature of the assay: flow cytometry, B16-F10 cells expressing human ROR1 (high density). As for the experimental part: (§1) As shown in the tables below, mouse B16-F10 melanoma (Tables 9A-9F) or LS174T human colorectal adenocarcinoma (Tables 9G-9H) cells genetically engineered to express human ROR1 at high and low densities, respectively, were stained for flow cytometric analysis with 100 nM of humanized variants of the ROR1 specific VHHs, 5A1 or 2A11 in either a VHH-Fc format or the Ac13 format shown in FIG. 1. Cells were analyzed on a flow cytometer after the primary test article was fluorescently tagged with a goat anti human IgG-Fc specific PE secondary antibody. The positive control used was PE conjugated anti-human ROR1 clone 2A2. Negative controls included a PE labeled mouse IgG Ab, the secondary antibody only, the combination of a Hen Egg Lysozyme (HEL) specific antibody plus goat anti human IgG-Fc specific PE and Fluorescence Minus One (FMO). Other controls included the non-humanized version of 5A1-Fc (FUSE179), 2A11-Fc (FUSE112) and 5A1-Ac13 (FUSE488). Humanized variants were generated using computational design (FUSE489, FUSE497-498, FUSE563, FUSE569-570, and BI-HU9-VHH11-33), a yeast display library in which mutations were inserted into the Vernier zone residues of human framework indicated in GenBank accession number M99660 (FUSE524-525, FUSE589, FUSE597-598, FUSE537, FUSE661-662, BI-HU9-HK and BI-HU9-HK-1), and a second yeast display library in which mutations were inserted into the Vernier zone residues of human framework indicated in GenBank accession number AWH66715 and amino acid position 103 within CDR3 (FUSE559, FUSE590-596, BI-HU9-VH9-1, FUSE654-655 and FUSE661-662. Affinity matured variants of FUSE559 were also generated using computational design (F22158101-21; Table 9H).
Regarding B2, the MFI stood at 6950.

Take B3: the MFI was 6260.

The target is the same in another assay. The assay is described as above. This is another data set of the same source. How it is done: as §1
For B4, the MFI worked out at 1060.

B5: the MFI worked out at 811.

Consider B6, for which the MFI was 1360.

Regarding B1, the MFI came to 6470.

The next assay has the same target. Described as above. The source holds these as a separate data set. How it is done:
as §1
Take B7: the MFI turned out to be 583.

For the molecule B8, the MFI amounted to 388.

With B9, the MFI stood at 590.

The target is the same in a further assay. As to the kind of experiment: flow cytometry, LS174T cells expressing human ROR1 (low density). As for the experimental part:
as §1
For B10, the MFI came to 4350.

Consider B11, for which the MFI turned out to be 4880.

In the case of B12, the MFI is 4010.

B13: the MFI came to 4560.

For a further assay the target is unchanged. Nature of the assay: flow cytometry, B16-F10 cells expressing human ROR1 (high density). The source holds these as a separate data set. How it is done: as §1
In the case of B14, the MFI was 159000.

Turning to B15, the MFI is 155000.

B16: the MFI came out at 157000.

As to B17, the MFI came to 136000.

For B18, the MFI was determined as 16600.

B19: the MFI is 17900.

B20: the MFI was 14400.
